From paper PMC6900184, “The Escherichia coli MarA protein regulates the ycgZ‐ymgABC operon to inhibit biofilm formation”

Target: T1, MarA (Escherichia coli, UniProt P0ACH5 1-127)
T1 sequence: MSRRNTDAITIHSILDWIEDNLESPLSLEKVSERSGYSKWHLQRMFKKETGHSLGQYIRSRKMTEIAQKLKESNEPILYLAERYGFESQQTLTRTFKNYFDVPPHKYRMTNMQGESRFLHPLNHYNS
Experiment: EMSA; MarA 0.4, 1.2, 2.0 uM; EMSA: 20 mM Tris pH 7, 10 mM MgCl2, 100 mM EDTA (so in the source), 120 mM KCl; 5% polyacrylamide gel; temperature not stated
Settings: protein: recombinant; tags: N-terminal His6 tag (pET28a) removed by thrombin; label: 5'-32P; 5' overhang 4 nt at both ends (EcoRI, HindIII)

B1: ycgZ.1m (dsDNA)
DNA 1: AATTCATATGCATTACGTCTAATTCGAAAAAATTAATTTATCATTCTGTACACATATTTCGTACAAGTTTGCTATTGTTACTTCACTTAACATTGATTAACATTTTTAACAGAGGCGTAGCATGA
DNA 2: AGCTTCATGCTACGCCTCTGTTAAAAATGTTAATCAATGTTAAGTGAAGTAACAATAGCAAACTTGTACGAAATATGTGTACAGAATGATAAATTAATTTTTTCGAATTAGACGTAATGCATATG
**Q.** Does B1 bind?
**A.** no binding
